Test results reported in the DeepSol protein solubility set.

Assay: soluble on expression in E. coli; label from the status in PepcDB or PDB records

Row | Sequence | soluble on expression in E. coli
1 | MDLSNRTVLIVGGTSGIGRELARRFAAAGSTVAVGGRSPEALSELAGEGFGTISIDVTDSASVASARDAVLARYPELDTVVTMPGIMLLEDLRDPAHFEAAATTIDTNLVGTIRVIDAFTPHLVRRGAGTFITVTSGIAFLPFPPMPTYAASKAAVHAYSEALRAQLDGTGVSVVELVPPAVATAGQEKVNPHALPLDDFATEVVQLLSEDPTPREILVKAALMHRWAERDGTYDDLVAQRSQALAMLPSREG | not soluble
2 | GSAMASNAVLYKSNHNVVYSCKYHIVWCPKYRRKVLVGAVEMRLKEIIQEVAKELRVEIIEMQTDKDHIHILADIDPSFGVMKFIKTAKGRSSRILRQEFNHLKTKLPTLWTNSCFISTVGGAPLNVVKQYIENQQNSNRPKQKEKWKSYVDNLQTKAL | soluble
3 | MIKNPILRGFNPDPSICRADTDYYIATSTFEWFPGVQIHHSKDLVNWHLVAHPLNRTSLLDMKGNPNSGGIWAPDLSYHDGKFWLIYTDVKVTDGMWKDCHNYLTTCESVDGVWSDPITLNGSGFDASLFHDNDGKKYLVNMYWDQRTYNHNFYGIVLQEYSDKEKKLIGKAKIIYKGTDIKYTEGPHIYHIGDYYYLFTAEGGTTYEHSETVARSKNIDGPYEIDPEYPLLTSWHDPRNSLQKCGHASLVHTHTDEWYLAHLVGRPLPVGNQPVLEQRGYCPLGRETSIQRIEWVDNWPRVVGGKQGSVNVEAPKIPEVKWEKTYDEKDNFDSDKLNINFQSLRIPLTENIASLKAKKGNLRLYGKESLTSTFTQAFIARRWQSFKFDASTSVSFSPDTFQQAAGLTCYYNTENWSTIQVTWNEDKGRVIDIVCCDNFHFDMPLKSNVIPIPKDVEYIHLKVEVRVETYQYSYSFDGINWSKVPAIFESRKLSDDYVQGGGFFTGAFVGINCIDITGNNKPADFDYFCYKEL | soluble
4 | MGSDKIHHHHHHMSEKLWEKGYKVNEEVEKFTVGDDYITDMKIIEYDIKASIVHSRMLHKIGLLSAEEQKKIEEALSELLNLVKEGKFQIKPEEEDCHTAIENFLVKKLGEIGKKIHTARSRNDQVLTALRLMYKEELKEIENLIRELQKSLERFIEKFGDVKFPGYTHTRKAMPTDFATWAGALKDALEDDLKLLKTAYEIVDQSPLGTGAGYGVPIDIDREFTAKELGFSKVQWNPIYTQNSRGKFEYLILHTLSQISYDLNRFASDIIFFSLPEIGYLKLPKELCTGSSIMPHKINPDPLELVRAHHHTIVSKMLMAVTLPSNLIFGYHRDFQLLKKPVIEAFEVVKNIVRIMKIIFDHLEVDKERSESSITEEVLATHRVYELVKQGVPFRDAYRMVAEKYGREKD | not soluble
5 | MMKGSRRTGNNTATTLNTPVVIHATQLPQHVSTDEVLQFLESFIDEKENIIDIDTNLSSSISQLKRIQRDFKGLPPAQDFSAAPIQV | soluble
6 | VIHVTKEVKEVATLSCGHNVSVEELAQTRIYWQKEKKMVLTMMSGDMNIWPEYKNRTIFDITNNLSIVILALRPSDEGTYECVVLKYEKDAFKREHLAEVTLSVKADFPTPSISDFEIPTSNIRRIICSTSGGFPEPHLSWLENGEELNAINTTVSQDPETELYAVSSKLDFNMTTNHSFMCLIKYGHLRVNQTFNWNTAK | soluble
7 | MSESSVTTEIVVRLPKQMVTELDGIGKQENKNRHELICQATQLLLRQHKTKKRYQHESMRRGYIEMGKINLGIASEAFLAEYEAAHTVERLVSGG | not soluble
8 | MLIREIEKKDNEQVETLIRTCLIEFGADKPGCAWTDPDLGRFYEIYQDKKSKYWVVEEEGKIIAGCGIGPLNGAENVCELQKMYSYKEARGTGIAKDLLGLALDFAKKYYDKCYLETFSNMTAANKFYVKNGFKKLEKPLIETDHYACDVWYIKEL | not soluble
9 | MSLRQRFVLDTTAITDAGLRIKEGYESLCESAAEVLDLIALARLKLDISCYIPYPSVYTELTSFLKRYGCDEEIFTKLDTWLVKKTPNRYEVKIPAAIFYEYIITVRQKMNRGRRLAEEYILESSAITAKLEDKSKIEEEIGALISKFRDKYRAVMRQGILDSAPDLDVLLLAKELEAGVVSSDAGIRKWSERLGLRFVEAAKFPRMLKEYLKLMGSKDIVGWFESEEDEGHHHHHH | not soluble
10 | GPGSMWGRYVRVCTREQHSRKQLTSAGVPQGGVPGPKLFLHCVDDLLHRMDNIYSASAFMHADDLKLVASGADIHACAAAMQPALPLITKWAAEHSLKINVAKSESALFHISSHTRSDEDMVDLLPGNGNLRIQSCPVRLLDTTFDRLLNFGPHASTAAKRTMPRRYQLRPVAQAGASHHNTQSFSIGYVHIVLFHNGDAILPCFAHIYLHNMEVRYRDGRKTFLA | not soluble
11 | MDALKLLTNRRSSKKLKHPAPDAAELEQIFQAATQVPDHGNMRPFRFTVIQGEVGLQRFRDVLKQTVAELNFGDDAMKKAEKVGNMAPMVIGVTFAPNRDVPKPKPEWEQMLTAGCAAYALQLAATAQGFDNVWITGMWVNSPLLREAFGCADKDKIIGLMMVGTPTEEVHKPKNTDLEAFVSHW | not soluble
12 | MSLEEKPKYKRILLKLSGEAFAGEQGYGIDPAFLEYISHEIKNVYDLGVQVAIVIGGGNIFRGFQGKEIGVDRATADYMGMLATVINALALQSALENHVNIPTRVLSAIEMRQVAEPYIRRRAIRHLEKGRIVIFAGGTGNPFFSTDTAAALRAAEIGAEVLIKATKVGGIYDKDPEKYPDAVLIKEISYLEVINMGLKVMDHTALTLCKENEIPIIVLNVKEKGNLRRAVLGEEVGSVVRGEGHHHHHH | soluble
13 | MGSDKIHHHHHHMKSWPRPCSWACANPETKGRAYRTMSSSPTISPASDTFAAMTDDHRLAEFIREQASATRVVIQARKRLSGGAIQENWLLDLLIEGGPWAGVRRWVLRSDALSALPASLDREQEFAVLQVVYQAGVKVPRPLWLCRDVRVHGRVFFLMEYVPGSAAGRALSTGAGPQGRAQLATQLGANLARLHQVRPPCATLCFLSVPDSSPALATIDAYRRYLDTLADAYPVLEWGLRWCELHAPRSSTLCLLHRDYRTGNYLASEEGLEAVLDWEFTGWGDPCEDLGWFTARCWRFTRPDLEAGGIGQLEDFLRGYHEVSSLCIERSRLHYWQVMATLRWAVIALQQGQRHLSGEEPSLELALTARLLPELELDILHMTGAEAP | not soluble
14 | MDMMWISYHLKKGGRRLRIRIGIDIGSTHTDAVALEGKELIVADKVMTTPDLTTGLLNAISRVMKKLGERKNEVDTLMIGTTHGLNALHQGKGLNRVATIRIGLPAGEGVPPVFDWPEQLSNFVTYRYMVRGGHEYTGEEIVELDEGKIKEIAEAINGKVDAIAISSIFSVVNSSHEIRAREILREKG | not soluble
15 | MGRYIGPVCRLCRREGVKLYLKGERCYSPKCAMERRPYPPGQHGQKRARRPSDYAVRLREKQKLRRIYGISERQFRNLFEEASKKKGVTGSVFLGLLESRLDNVVYRLGFAVSRRQARQLVRHGHITVNGRRVDLPSYRVRPGDEIAVAEKSRNLELIRQNLEAMKGRKVGPWLSLDVEGMKGKFLRLPDREDLALPVNEQLVIEFYSR | soluble
16 | MAHHHHHHMPFNREILAAISFESGPLSSAEIAARRTPTEEPPKNLEVKSCDKRDEPRQNEATINLIRCMKWALGQSITSISHPAKQRPLNPKRDFSIKTKINLDVGVEKPKPGFCCSTAAATGVREQRNHHAPFYDAHGDSEEASHLDESDVESHDEVPNVPLAFVDYSPMCYRHIREFFNIDHRAYRDVLLRSRWHSTPTPGKSAAQLFFCGRDWVIKTMTHEESKFLRRILHRYYFFVLDHPYTLLPHFVGHHRLEINGEKMYIIIMQNVFVTGNTIHEKYDLKGSTVGRFATEAEKKKQTCTQKDLDINRPLHVGATRRNLLIEQMKMDCGFLNQCNIMDYSFLVGIHVLPMYEAHRPAPSTGSREYLGGAAALATSALEPSYLLGMGETMQPMALNGHPTAAADSAPTDGRCFKADQGGMMSADHPGGRREIYYIGIIDILQEYNSRKSMETLVFGMLKDRQKISAVPPKEYAARFVSFVSSIIV | not soluble
17 | GPGSMSFPKEWTDTWNLFDDRRSGSVTHSDVKHIIRSLGRRYTEAEFNELLHDIPDPIPYQSFVEIMQKPYNGPTEDDLRTALRAFDGNDSGQLKLSELITLLTSLGEKMPEAEVKQLLSEVHTNEDGRVNIDDLARFLCTPLPTTQPDIAELQKQLAGIS | soluble
18 | NLQPLETTITDVERFKDTVTLELSCPSCDKRFPFGGIVSSNYYRVSYNGLQCKHCEQLFTPLQLTSQIEHSIRAHISLYYAGWLQCDDSTCGIVTRQVSVFGKRCLNDGCTGVMRYKYSDKQLYNQLLYFDSLFDCEKNKKQELKPIYLPDDLDYPKEQLTESSIKALTEQNRELMETGRSVVQKYLNDCGRRYVDMTSIFDFMLN | soluble
19 | MGSDKIHHHHHHMRKMMNEQLPISKSSPLKARFYDYPYFTYPWHFHTEYEIIYVKEGTGMRFVGNNAEKYADGDILLLGSDLPHYMKSDEVYRQEGSTLRTTGTIIQFEKDFMHHAFNYYPHFMKIKNLLEEAQRGIYFPAGCSPRLVDLLESIPVETGVDQITSFLQLLKEMANVASRSVLSTSDFENDIIYDGSRIDKIIVYLNKNYTRQIDLNEISSLAAMNPAAFCRFFKSKTGKSFKNYILEMRIGYACKLLLMGDMNISQISVECGFDTISHFNKSFKKHTGFTPSYYKRMMLAE | not soluble
20 | MGVFRTRFTETFGVEHPIMQGGMQWVGRAEMAAAVANAGGLATLSALTQPSPEALAAEIARCRELTDRPFGVNLTLLPTQKPVPYAEYRAAIIEAGIRVVETAGNDPGEHIAEFRRHGVKVIHKCTAVRHALKAERLGVDAVSIDGFECAGHPGEDDIPGLVLLPAAANRLRVPIIASGGFADGRGLVAALALGADAINMGTRFLATRECPIHPAVKAAIRAADERSTDLIMRSLRNTARVARNAISQEVLAIEARGGAGYADIAALVSGQRGRQVYQQGDTDLGIWSAGMVQGLIDDEPACAELLRDIVEQARQLVRQRLEGMLAGV | soluble
21 | MGSDKIHHHHHHMRLPDAGFRRYIVVAGRRNVGKSSFMNALVGQNVSIVSEYAGTTTDPVYKSMELYPVGPVTLVDTPGLDDVGELGRLRVEKARRVFYRADCGILVTDSEPTPYEDDVVNLFKEMEIPFVVVVNKIDVLGEKAEELKGLYESRYEAKVLLVSALQKKGFDDIGKTISEILPGDEEIPYLGDLIDGGDLVILVVPIDLGAPKGRLIMPQVHAIREALDREAIALVVKERELRYVMENIGMKPKLVITDSQVVMKVASDVPEDVELTTFSIVESRYRGDLAYFVESVRKIEELEDGDTVVIMEGCTHRPLTEDIGRVKIPRWLVNHTGAQLNFKVIAGKDFPDLEEIEGAKLIIHCGGCVLNRAAMMRRVRMAKRLGIPMTNYGVTISYLHGVLDRAIRPFREEVKV | not soluble
22 | MKQHCQKQSTARSTKLQYLAENQNDQPRLLAGSLSHGDSTTGPIKYKDGHQKRTTVVWDGQGTIRDETKSNIIKLTYLYLFPSCGAGSVRELVPFSSYHSFIVTHSTFNITMIALQSKCILPPCLPL | not soluble
